8 molecules from patent US20260297194 (published 2026) can be followed below.

One assay has as its target human GPRC5A (human, UniProt Q8NFJ5). Nature of the assay: FACS, human GPRC5A-CHOK1 cells.
Assay [1] has as its target T1, human GPRC5D (human, UniProt Q9NZD1).
T1 chain: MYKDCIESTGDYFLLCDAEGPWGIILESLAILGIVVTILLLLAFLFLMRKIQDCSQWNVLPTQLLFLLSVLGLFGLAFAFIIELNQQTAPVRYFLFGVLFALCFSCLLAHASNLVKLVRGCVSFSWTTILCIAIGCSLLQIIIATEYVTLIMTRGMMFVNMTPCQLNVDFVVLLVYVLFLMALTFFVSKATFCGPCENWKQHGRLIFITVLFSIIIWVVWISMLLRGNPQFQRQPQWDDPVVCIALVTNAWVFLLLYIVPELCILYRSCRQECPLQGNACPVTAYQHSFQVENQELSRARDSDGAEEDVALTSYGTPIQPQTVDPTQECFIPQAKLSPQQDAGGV
Nature of the assay: FACS, human GPRC5D-CHOK1 cells.

For assay [2], the target named is T2, human CD3 (human, UniProt P07766).
T2 chain: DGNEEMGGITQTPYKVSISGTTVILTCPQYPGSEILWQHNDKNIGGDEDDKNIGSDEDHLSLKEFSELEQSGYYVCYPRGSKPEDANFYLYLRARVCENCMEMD
Nature of the assay: SPR.

For assay [3], the target named is T2, human CD3. Nature of the assay: FACS, Jurkat cells.
A further assay deals with T3, cynomolgus CD3 (cynomolgus monkey, UniProt Q95LI5).
T3 chain: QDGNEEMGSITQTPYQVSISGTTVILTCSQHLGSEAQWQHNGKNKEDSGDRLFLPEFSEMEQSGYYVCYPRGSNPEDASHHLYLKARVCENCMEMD
Nature of the assay: SPR.

Assay [4] addresses T1, human GPRC5D. The experiment in a line: FACS, NCI-H929 cells.
Assay [5] has as its target T1, human GPRC5D. Nature of the assay: FACS, RPMI8226 cells.
For assay [6], the target named is T1, human GPRC5D. Nature of the assay: FACS, NCI-H929 cells.
The target of assay [7] is T1, human GPRC5D. The experiment in a line: FACS, human GPRC5D-CHOK1 cells.

Sequence of human GPRC5A (Q8NFJ5 whole entry): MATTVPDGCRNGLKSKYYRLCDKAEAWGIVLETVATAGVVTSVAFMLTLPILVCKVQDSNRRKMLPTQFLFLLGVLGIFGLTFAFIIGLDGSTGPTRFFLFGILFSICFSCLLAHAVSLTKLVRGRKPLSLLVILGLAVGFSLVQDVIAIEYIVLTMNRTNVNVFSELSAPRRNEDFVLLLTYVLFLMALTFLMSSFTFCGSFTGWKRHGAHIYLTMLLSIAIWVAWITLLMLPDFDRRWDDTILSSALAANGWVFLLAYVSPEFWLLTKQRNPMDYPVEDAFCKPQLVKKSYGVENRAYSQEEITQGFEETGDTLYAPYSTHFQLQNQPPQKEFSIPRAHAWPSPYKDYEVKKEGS

B1: 18CH-16 chimeric (antibody, V domains shown)
VH: EVQLQQSGPELVKPGASVKMSCKASGYTFTSYIIHWVKQKPGQGLEWIGYINPYNDGTKYNEKFKGKATLTSDRSSSTAYMEVSSLTSEDSAVYYCARGGIRAFMNYWGQGTSVTVSS
VL: DIVMTQSHKFMSTSVGDRVSITCKASQDVGTAVAWYQQKPGQSPKLLIYWASTRHTGVPDRFTGSGSGTDFTLSISNVQSEDLADYFCQHYISWTFGGGTNLEIK
B1: the binding result with human GPRC5A was “no binding”. The EC50 with human GPRC5D [1] was 3.89 nM.

B2: Bispecific antibody 1 (CD3 arm) (antibody, V domains shown)
VH: EVKLVESGGGLVQPGGSLKLSCAASGFTFNTYAMNWVRQAPGKGLEWVARIRSKYNNYATYYADSVKDRFTISRDDAKNTLYLQMNNLRTEDTAVYYCVRHGNFGNSYVSWFAYWGQGTLVTVSS
VL: QAVVTQEPSLTVSPGGTVTLTCRSSTGAVTTSNYANWVQQKPGQAPRGLIGGTNKRAPGTPARFSGSLLGGKAALTLSGAQPEDEAEYYCALWYSNLWVFGGGTKLTVL
modifications: Acro CDD-H52W1 for SPR; native CD3 on Jurkat cells for FACS
With B2, the Kd with human CD3 [2] is 20 nM. For the same molecule, the EC50 with human CD3 [3] was found to be 22.1 nM.

B3: Bispecific antibody 2 (CD3 arm) (antibody, V domains shown)
VH: EVKLVESGGGLVQPGGSLKLSCAASGFTFNTYAMNWVRQAPGKGLEWVARIRSKYNNYATYYADSVKDRFTISRDDAKNTLYLQMNNLRTEDTAVYYCVRHGNFGNSYVSWFAYWGQGTLVTVSS
VL: QAVVTQEPSLTVSPGGTVTLTCRSSTGAVTTSNYANWVQQKPGQAPRGLIGGTNKRAPGTPARFSGSLLGGKAALTLSGAQPEDEAEYYCALWYSNLWVFGGGTKLTVL
modifications: Acro CDD-H52W1 for SPR; native CD3 on Jurkat cells for FACS
The molecule B3 gave a Kd with human CD3 [2] of 18.1 nM. The EC50 with human CD3 [3] was found to be 12.9 nM.

B4: Bispecific antibody 2 (CD3 arm) (antibody, V domains shown)
VH: EVKLVESGGGLVQPGGSLKLSCAASGFTFNTYAMNWVRQAPGKGLEWVARIRSKYNNYATYYADSVKDRFTISRDDAKNTLYLQMNNLRTEDTAVYYCVRHGNFGNSYVSWFAYWGQGTLVTVSS
VL: QAVVTQEPSLTVSPGGTVTLTCRSSTGAVTTSNYANWVQQKPGQAPRGLIGGTNKRAPGTPARFSGSLLGGKAALTLSGAQPEDEAEYYCALWYSNLWVFGGGTKLTVL
modifications: Acro CDD-C52W4
Take B4: binding with cynomolgus CD3 was put at a Kd of 18.9 nM.

B5: Bispecific antibody 1 (CD3 arm) (antibody, V domains shown)
VH: EVKLVESGGGLVQPGGSLKLSCAASGFTFNTYAMNWVRQAPGKGLEWVARIRSKYNNYATYYADSVKDRFTISRDDAKNTLYLQMNNLRTEDTAVYYCVRHGNFGNSYVSWFAYWGQGTLVTVSS
VL: QAVVTQEPSLTVSPGGTVTLTCRSSTGAVTTSNYANWVQQKPGQAPRGLIGGTNKRAPGTPARFSGSLLGGKAALTLSGAQPEDEAEYYCALWYSNLWVFGGGTKLTVL
modifications: Acro CDD-C52W4
In the assay with cynomolgus CD3, B5 gave a Kd of 16.8 nM.

B6: Bispecific antibody 1 (GPRC5D arm) (antibody, V domains shown)
VH: QVQLVQSGAEVKKPGASVKVSCKASGYTFTSYIIHWVRQAPGQGLEWIGYINPYNDGTKYNEKFKGRVTMTSDTSTSTVYMELSSLRSEDTAVYYCARGGIRAFMNYWGQGTLVTVSS
VL: DIQMTQSPSSLSASVGDRVTITCKASQDVGTAVAWYQQKPGKAPKLLIYWASTRHTGVPSRFSGSGSGTDFTLTISSLQPEDFATYYCQHYISWTFGQGTKVEIK
On to B6, for which the EC50 in the assay with human GPRC5D [4] worked out at 1.07 nM; with human GPRC5D [5], 7.48 nM.

B7: 18CH16H2L1 (antibody, V domains shown)
VH: QVQLVQSGAEVKKPGASVKVSCKASGYTFTSYIIHWVRQAPGQGLEWIGYINPYNDGTKYNEKFKGRVTMTSDTSTSTVYMELSSLRSEDTAVYYCARGGIRAFMNYWGQGTLVTVSS
VL: DIQMTQSPSSLSASVGDRVTITCKASQDVGTAVAWYQQKPGKAPKLLIYWASTRHTGVPSRFSGSGSGTDFTLTISSLQPEDFATYYCQHYISWTFGQGTKVEIK
In the case of B7, the EC50 came out at 0.3 nM in the assay with human GPRC5D [6] and 0.51 nM with human GPRC5D [7].

B8: Bispecific antibody 2 (GPRC5D arm) (antibody, V domains shown)
VH: QVQLVQSGAEVKKPGASVKVSCKASGYTFTSYIIHWVRQAPGQGLEWIGYINPYNDGTKYNEKFKGRVTMTSDTSTSTVYMELSSLRSEDTAVYYCARGGIRAFMNYWGQGTLVTVSS
VL: DIQMTQSPSSLSASVGDRVTITCKASQDVGTAVAWYQQKPGKAPKLLIYWASTRHTGVPSRFSGSGSGTDFTLTISSLQPEDFATYYCQHYISWTFGQGTKVEIK
On to B8, for which the figures for the EC50 in the assay with human GPRC5D [4] and with human GPRC5D [5] were 5.19 nM and 22.9 nM, respectively.
